Fewer inactive variants are shown than the library holds.
Tests used:
biotinyl-Phe-oxazolone = assay: self-aminoacylation, catalytic enhancement (BFO) (fold over background); higher = more active; k-Seq, kA / k0A0; sequences stand for … in GGGAAUGGAUCCACAUCUACGAAUUC…UUCACUGCAGACUUGACGAAGCUG
Method in brief: (§1)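 Working in 50 μL HEPES/NaCl/KCl/MgCl2/CaCl2 buffer with 5% acetonitrile at pH 6.9–7.0, mutagenized RNA pools (0.43 μM; 21-nt variable region) were reacted with 2–1250 μM of each biotinyl-aminoacyl-oxazolone for 90 minutes at room temperature. Streptavidin capture followed, with quantification by triplicate qPCR and Illumina sequencing. Catalytic enhancement is reported as median kA over the uncatalyzed rate, the low-activity peak of a bimodal Gaussian fit to the data.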

biotinyl-Met-oxazolone = assay: self-aminoacylation, catalytic enhancement (BMO) (fold over background); higher = more active; k-Seq, kA / k0A0; sequences stand for … in GGGAAUGGAUCCACAUCUACGAAUUC…UUCACUGCAGACUUGACGAAGCUG
Method in brief: as §1

biotinyl-Ile-oxazolone = assay: self-aminoacylation, catalytic enhancement (BIO) (fold over background); higher = more active; k-Seq, kA / k0A0; sequences stand for … in GGGAAUGGAUCCACAUCUACGAAUUC…UUCACUGCAGACUUGACGAAGCUG
Method in brief: as §1

biotinyl-Trp-oxazolone = assay: self-aminoacylation, catalytic enhancement (BWO) (fold over background); higher = more active; k-Seq, kA / k0A0; sequences stand for … in GGGAAUGGAUCCACAUCUACGAAUUC…UUCACUGCAGACUUGACGAAGCUG
Method in brief: as §1

biotinyl-Val-oxazolone = assay: self-aminoacylation, catalytic enhancement (BVO) (fold over background); higher = more active; k-Seq, kA / k0A0; sequences stand for … in GGGAAUGGAUCCACAUCUACGAAUUC…UUCACUGCAGACUUGACGAAGCUG
Method in brief: as §1

biotinyl-Leu-oxazolone = assay: self-aminoacylation, catalytic enhancement (BLO) (fold over background); higher = more active; k-Seq, kA / k0A0; sequences stand for … in GGGAAUGGAUCCACAUCUACGAAUUC…UUCACUGCAGACUUGACGAAGCUG
Method in brief: as §1

| Sequence | self-aminoacylation (biotinyl-Phe-oxazolone) | self-aminoacylation (biotinyl-Met-oxazolone) | self-aminoacylation (biotinyl-Ile-oxazolone) | self-aminoacylation (biotinyl-Trp-oxazolone) | self-aminoacylation (biotinyl-Val-oxazolone) | self-aminoacylation (biotinyl-Leu-oxazolone) |
| --- | --- | --- | --- | --- | --- | --- |
| AUUACCCUGUUCCUCGAGUGA [Fam2.1 aminoacylation ribozyme variant] | 11.2 | 3.86 | 2.27 | 4.81 | 2.68 | 3.54 |
| AUUCACCUAGGGCUUCGGGUG [Fam2.2 aminoacylation ribozyme variant] | 15.1 | 3.39 | 2.69 | 3.63 | 2.92 | 2.82 |
| CUUCACCUCGGUCAUCGGGUG [Fam2.2 aminoacylation ribozyme variant] | 44.6 | 5.17 | 3.54 | 5.07 | 4.37 | 5.57 |
| CUACGUCUAACAAUCGGUCUG [Fam1A.1 aminoacylation ribozyme variant] | 1.21 | 0.918 | 0.89 | 0.703 | 0.856 | 0.941 |
| CCACACUUCAAGCAAUCGAAC [Fam1B.1 aminoacylation ribozyme variant] | 0.953 | 0.402 | 0.557 | 0.578 | 0.76 | 0.41 |
| CUAAUUCAAACAAGCGGUCUG [Fam1A.1 aminoacylation ribozyme variant] | 0.798 | 1.1 | 0.874 | 0.632 | 0.972 | 0.847 |
| GUACUUCAAACAAUCGGUCUA [Fam1A.1 aminoacylation ribozyme variant] | 4.84 | 0.943 | 1.17 | 3.66 | 0.997 | 0.933 |
| CUACUUCAAACAAUCGGUUAG [Fam1A.1 aminoacylation ribozyme variant] | 2.89 | 0.591 | 0.706 | 1.46 | 0.614 | 0.493 |
| AUUACCCUGGUCAUCGGAUGA [Fam2.1 aminoacylation ribozyme variant] | 0.931 | 1.16 | 1.4 | 1.62 | 1.36 | 1.65 |
| AUUCGCCUAGGUGAUCGGGUG [Fam2.2 aminoacylation ribozyme variant] | 20.6 | 2.35 | 2.56 | 3.31 | 2.48 | 3.46 |
| CCACACUACAAGCAAUCGGCC [Fam1B.1 aminoacylation ribozyme variant] | 1.99 | 2.7 | 2.44 | 1.78 | 2.06 | 1.57 |
| ACUCACCUAGGUCAUCGGCUG [Fam2.2 aminoacylation ribozyme variant] | 7.96 | 2 | 2.1 | 2.35 | 3.01 | 1.31 |
| CUAAUUCAAACGAUCGGUCUG [Fam1A.1 aminoacylation ribozyme variant] | 0.8 | 0.696 | 0.689 | 0.656 | 0.648 | 0.72 |
| AUUCGCCUAGGUCAUCGGGGG [Fam2.2 aminoacylation ribozyme variant] | 30 | 5.82 | 4.36 | 3.54 | 3.72 | 7.51 |
| GUUCACCUAGGGCAUCGGGUG [Fam2.2 aminoacylation ribozyme variant] | 23.4 | 3.44 | 3.29 | 4.28 | 3.42 | 3.57 |
| AAGUAUGCUAACAGUCGCAAG [Fam3.1 aminoacylation ribozyme variant] | 13.3 | 1.42 | 1.82 | 4.66 | 1.54 | 1.45 |
| CUUACCAUGGUCAUCGAGUGA [Fam2.1 aminoacylation ribozyme variant] | 14.4 | 5.89 | 3.16 | 7.03 | 3 | 5.9 |
| AAUACCCUGGUCAUCGAGAGA [Fam2.1 aminoacylation ribozyme variant] | 0.87 | 0.552 | 0.653 | 0.752 | 0.65 | 0.673 |
| AAGUUUGCUAAUAGCCGGAAG [Fam3.1 aminoacylation ribozyme variant] | 3.2 | 1.14 | 1.25 | 2.38 | 1.25 | 1.4 |
| AUCACCCUGGUAAUCGAGUGA [Fam2.1 aminoacylation ribozyme variant] | 95.4 | 11.2 | 4.92 | 13.6 | 4.82 | 11.3 |
| AUUACCCUGGUCAUCGACUUA [Fam2.1 aminoacylation ribozyme variant] | 0.425 | 0.636 | 0.596 | 0.414 | 0.818 | 0.544 |
| CUACUUCAACCAAUCGAUCUG [Fam1A.1 aminoacylation ribozyme variant] | 1.98 | 0.62 | 0.763 | 1.04 | 0.665 | 0.598 |
| AUUGCGCUGGUCAUCGAGUGA [Fam2.1 aminoacylation ribozyme variant] | 25.1 | 4.28 | 2.47 | 5.11 | 2.62 | 4.57 |
| AUUACCCUUGUCAUCGAGUGA [Fam2.1 aminoacylation ribozyme variant] | 21.8 | 5.94 | 3.19 | 7.65 | 3.54 | 5.88 |
| AUAACCCUGGUCAUCGCGUGA [Fam2.1 aminoacylation ribozyme variant] | 103 | 16 | 6.85 | 18.7 | 7.96 | 18.2 |
| CCACACUGCAAGCAACCGGUC [Fam1B.1 aminoacylation ribozyme variant] | 0.966 | 1.49 | 1.53 | 1.07 | 1.79 | 1.25 |

| Sequence | self-aminoacylation (biotinyl-Phe-oxazolone) | self-aminoacylation (biotinyl-Met-oxazolone) | self-aminoacylation (biotinyl-Ile-oxazolone) | self-aminoacylation (biotinyl-Trp-oxazolone) | self-aminoacylation (biotinyl-Val-oxazolone) | self-aminoacylation (biotinyl-Leu-oxazolone) |
| --- | --- | --- | --- | --- | --- | --- |
| AAGUUUGCUGAUAGUCGCAAG [Fam3.1 aminoacylation ribozyme variant] | 1.68 | 0.906 | 0.979 | 1.02 | 0.952 | 0.866 |
| CCAGACUUCAAGCUAUCGGUC [Fam1B.1 aminoacylation ribozyme variant] | 1.11 | 1.08 | 1.41 | 0.76 | 1.41 | 1.16 |
| AUUACUCUGGUCAUAGAGUGA [Fam2.1 aminoacylation ribozyme variant] | 20.8 | 4.99 | 3.03 | 6.05 | 2.79 | 5.04 |
| CCACACUUAAAGCAGUCGGUC [Fam1B.1 aminoacylation ribozyme variant] | 0.946 | 0.942 | 1.08 | 0.621 | 0.872 | 0.985 |
| AUUCACCUAGGUCGCCGGGUG [Fam2.2 aminoacylation ribozyme variant] | 18.5 | 3.99 | 3.4 | 3.38 | 3.25 | 3.8 |
| AAGUUUGCUAAUAGUCGGAAC [Fam3.1 aminoacylation ribozyme variant] | 0.662 | 1.01 | 1.05 | 1.05 | 0.851 | 0.951 |
| AUUUCCCUGGGCAUCGAGUGA [Fam2.1 aminoacylation ribozyme variant] | 32.6 | 5.56 | 3 | 6.79 | 3.21 | 6.7 |
| CUACUGGAAACAAUCGGUCUG [Fam1A.1 aminoacylation ribozyme variant] | 0.507 | 0.933 | 0.887 | 0.514 | 0.837 | 0.885 |
| CCACACGACAAGCAAUCGGUC [Fam1B.1 aminoacylation ribozyme variant] | 0.767 | 0.948 | 0.924 | 0.908 | 1.37 | 0.697 |
| AUUACCCUGGUCAUCGAGCGC [Fam2.1 aminoacylation ribozyme variant] | 1.86 | 2.53 | 2.09 | 1.16 | 2.29 | 2.33 |
| AUUCACCUAGGUCUUGGGGUG [Fam2.2 aminoacylation ribozyme variant] | 77.3 | 11.2 | 5.73 | 9.73 | 6.44 | 13.8 |
| CUACUUGAACCAAUCGGUCUG [Fam1A.1 aminoacylation ribozyme variant] | 0.74 | 0.841 | 0.821 | 0.582 | 0.879 | 0.941 |
| AUUAACCUCGUCAUCGAGUGA [Fam2.1 aminoacylation ribozyme variant] | 3.89 | 3.27 | 2.33 | 4.68 | 2.25 | 2.82 |
| AUGUUUGCUAAUACUCGCAAG [Fam3.1 aminoacylation ribozyme variant] | 0.958 | 0.735 | 0.985 | 0.728 | 0.908 | 0.966 |
| AAUUUUGCCAAUAGUCGCAAG [Fam3.1 aminoacylation ribozyme variant] | 2.34 | 2.31 | 1.78 | 1.8 | 1.69 | 1.8 |
| CUAACCCUGGUCAUCGAGUGA [Fam2.1 aminoacylation ribozyme variant] | 11.8 | 8.98 | 4.07 | 9.47 | 4.44 | 8.32 |
| AUUCACCUAGGUCAGCUGGUG [Fam2.2 aminoacylation ribozyme variant] | 15.1 | 2.56 | 1.92 | 1.7 | 1.64 | 2.7 |
| AAGUUUUCUAAUGGUCGCAAG [Fam3.1 aminoacylation ribozyme variant] | 2.21 | 1.21 | 1.67 | 1.68 | 1.38 | 1.6 |
| CCACACUUCAAACAAUCGGUU [Fam1B.1 aminoacylation ribozyme variant] | 29.6 | 1.93 | 1.91 | 21.5 | 2.17 | 2.57 |
| AUCCACCUAGGUCAUCGGGUG [Fam2.2 aminoacylation ribozyme variant] | 240 | 32.1 | 18.4 | 25 | 17 | 42 |
| AUUACUCUGGUCAUCGAGAGA [Fam2.1 aminoacylation ribozyme variant] | 1.03 | 0.867 | 0.907 | 0.523 | 0.908 | 0.713 |
| CCACACUUCACGCAAUCGGUG [Fam1B.1 aminoacylation ribozyme variant] | 52.2 | 5.89 | 3.09 | 6.24 | 3.5 | 7.74 |
| AAGUUUCCUCAUAGUCGCAAG [Fam3.1 aminoacylation ribozyme variant] | 3.38 | 1.39 | 2.1 | 1.84 | 2.08 | 2 |
| AGAACCCUGGUCAUCGAGUGA [Fam2.1 aminoacylation ribozyme variant] | 354 | 57.5 | 19.6 | 56.9 | 21.2 | 58.5 |
| CUACUUCAAACAAUCGGUAUA [Fam1A.1 aminoacylation ribozyme variant] | 1.24 | 0.607 | 0.772 | 0.725 | 0.688 | 0.661 |

— the supplement of paper PMC9233669
